Experimental data as given in FireProtDB (doi:10.1038/12277).

B1: Ribonuclease HI, P0A7Y4 (parent)
chain: MLKQVEIFTDGSCLGNPGPGGYGAILRYRGREKTFSAGYTRTTNNRMELMAAIVALEALKEHCEVILSTDSQYVRQGITQWIHNWKKRGWKTADKKPVKNVDLWQRLDAALGQHQIKWEWVKGHAGHPENERCDELARAAAMNPTLEDTGYQVEV

Variants of: B1
Conditions: Escherichia coli (strain K12), pH 5.5, CD, Potassium phosphate 2 mM, KF 5 mM, reversible: yes, structure 2RN2, whole UniProt chain shown; for ddG of mutation (higher = less stable) / denaturant m value / unfolding free energy: 25 °C, Urea; for Tm / change of melting temperature, mutant - wild type (higher = more stable): Thermal

| Variant | ddG of mutation (higher = less stable) | denaturant m value | unfolding free energy | Tm | change of melting temperature, mutant - wild type (higher = more stable) |
| --- | --- | --- | --- | --- | --- |
| Q105G | 2.2 kcal/mol | 2.1 kcal/mol/M | 7.5 kcal/mol | 38.2 °C | -9.6 °C |
| R27A | 2.2 kcal/mol | 2 kcal/mol/M | 7.5 kcal/mol | 42.2 °C | -5.6 °C |
| I53A |  |  |  | 35.7 °C | -12.1 °C |
| D10A | -3.3 kcal/mol | 2.1 kcal/mol/M | 13 kcal/mol | 62.6 °C | 14.8 °C |
